Data taken from US12116636B2, “Methods for evaluating tumor cell spheroids using 3D microfluidic cell culture device” (Dana-Farber Cancer Institute, Inc., priority 2017, dated 2024).

Test system: MC38 MDOTS
Experiment: RNA-seq of MDOTS after ex vivo treatment
Type: cell-based, murine
Conditions: Day 6
Excerpt: RNA is collected from a subset of the MDOTs within the device after the supernatants have been collected and cDNA libraries for RNA sequencing is generated to evaluate global transcriptome changes associated with treatment regimen on single samples per drug treatment. These types of data may be generated from a variety of clinical specimens. The RNA Advance tissue RNA isolation method (Beckman Coulter) is utilized, which is a bead wash based separation technique, which facilitates elution volumes amenable to sample input for RNA-Seq library preparation. Automated library preparation can be performed using as little as 10 ng of good quality RNA. The RNA Access method from Illumina is utilized, which enriches for the coding region of the genome. Libraries are sequenced on the NextSeq500 platform, as 75 bp Single End to generate approximately 20 million reads per sample. With appropriate adaptors, 24 samples are multiplexed on each NextSeq500 run. The concentration [ng/ul], yield [ng] and quality of RNA (high RIN #by bioanalyzer) derived from the MDOTS are more than sufficient to ensure good quality libraries for subsequent sequencing (FIG. 15).
The STAR RNA sequencing alignment tool (Spliced Transcripts Alignment to a Reference) [STAR_2.5.0a]) is utilized to align the data to the genome (RefSeq gene annotations). […]

B1: IFNγ: interferon gamma used as MC38 MDOTS treatment in RNA-seq (protein, UniProt P01580 23-155, looked up)
Interferon gamma: HGTVIESLESLNNYFNSSGIDVEEKSLFLDIWRNWQKDGDMKILQSQIISFYLRLFEVLKDNQAISNNISVIESHLITTFFSNSKAKKDAFMSIAKFEVNNPQVQRQAFNELIRVVHQLLPESSLRKRKRSRC
- expression of IFNγ genes incl. CXCL10, CXCL11, PD-L1, IDO1, IDO2 (RNA-seq) in MC38 MDOTS: induced
